Measured values: US11618906B2, “Hydroxylation techniques” (HYPHA DISCOVERY LTD., priority 2018, dated 2023)

Legend:
Assay type in all cases: biochemical
[1] = Metabolism of celecoxib by P450 aluC09 and mutants; conditions: percent of substrate being converted; 0.125 mg/ml, 27° C., 16-20 hours; [CYP] per enzyme as in Table 8
How it was run: (§1)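 Lyophilised P450 aluC09 mutants with ferredoxin aluF03 and ferredoxin reductase SCF15A were incubated with 0.125 mg/ml substrate in 50 mM potassium phosphate pH 7.4, 5 mM MgCl2, at 27° C. NADPH was regenerated by 5 mM G6P, 1 mM NADP and 2 UN/ml G6PDH. Conversion was measured by UPLC-MS after 16-20 hours.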

[2] = Metabolism of tofacitinib by P450 aluC09 and mutants; conditions: percent of substrate being converted; 0.125 mg/ml, 27° C., 16-20 hours; [CYP] per enzyme as in Table 8
How it was run: as §1

[3] = Metabolism of ritonavir by P450 aluC09 and mutants; conditions: percent of substrate being converted; 0.125 mg/ml, 27° C., 16-20 hours; [CYP] per enzyme as in Table 8
How it was run: as §1

[4] = Hydroxylation of flufenamic acid catalysed by cytochrome P450 aluC09 and mutants; conditions: for Flufenamic Acid (Substrate) 1.93 mins / Hydroxy-Flufenamic Acid (1) 1.69 mins / Hydroxy-Flufenamic Acid (2) 1.65 mins: % by UV peak area at 275 nm, 0.125 mg/ml substrate, 27° C., 16-20 hours; for Hydroxylated Ratio 1:2: flufenamic acid, ratio of UV peak areas at 275 nm
How it was run: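 Conversion measured by UPLC-MS (UV and MS) after acetonitrile extraction, following 16-20 h shaking at 27° C. Reaction: 0.125 mg/ml substrate, P450 mutant plus ferredoxin aluF03 and reductase SCF15A, 5 mM G6P, 1 mM NADP, 2 U/ml G6PDH, pH 7.4 phosphate with 5 mM MgCl2.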

[5] = Metabolism of tivantinib by P450 aluC09 and mutants; conditions: percent of substrate being converted; 0.125 mg/ml, 27° C., 16-20 hours; [CYP] per enzyme as in Table 8
How it was run: as §1

[6] = Metabolism of buparvaquone by P450 aluC09 and mutants; conditions: percent of substrate being converted; 0.125 mg/ml, 27° C., 16-20 hours; [CYP] per enzyme as in Table 8
Procedure: Lyophilised material of mutants of CYP450aluC09, ferredoxinaluF03 and ferredoxin reductaseSCF15A was made as described in examples 3 and 4 and suspended in water (0.5 mL per vial) and biocatalysis was performed at 27° C. in the following conditions: 50 mM potassium phosphate pH 7.4, 5 mM MgCl2, 0.125 mg/ml substrate compound such as diclofenac (Sigma-Aldrich, UK), Aceclofenac (Tokyo Chemical Industry UK Ltd, UK), Indomethacin (Sigma-Aldrich, UK), Flufenamic acid (Sigma-Aldrich, UK), Napropamide (Sigma-Aldrich, UK), celecoxib (LC Laboratories, USA), valsartan (Tokyo Chemical Industry UK Ltd, UK), ruxolitinib (LC Laboratories, USA), 4-pyrrolidylacetophenone (Sigma-Aldrich, UK), tofacitinib (LC Laboratories, USA), bosentan (CarboSynth Ltd, UK), buparvaquone (MedChemtronica, Sweden), BIRB796 (Stratech Scientific Limited, UK), epothilone B (LC Laboratories, USA), ritonavir (Tokyo Chemical Industry UK Ltd, UK) or tivantinib (MedChemtronica, Sweden), P450AluC09 (concentration as in Table 8), 5 mM G6P, 1 mM NADP, 2 UN/ml G6PDH in a final volume of 100 μL. After 16-20 hours at 200 rpm (5 cm orbital shaker, Kuhner AG, Switzerland), reactions were extracted with an equal volume of acetonitrile, centrifuged to remove precipitated proteins and conversion assessed by UPLC-MS analysis.
However, of particular note when considering P450 concentration are the results for mutants M12, M20 and M34, as well as the deleterious impact on the range of substrate utility in mutants M39 and M40.

[7] = Metabolism of epothilone B by P450 aluC09 and mutants; conditions: percent of substrate being converted; 0.125 mg/ml, 27° C., 16-20 hours; [CYP] per enzyme as in Table 8
How it was run: as §1

[8] = O-demethylation of indomethacin catalysed by cytochrome P450 aluC09 and mutants; conditions: % by UV peak area at 275 nm; 0.125 mg/ml substrate, 27° C., 16-20 hours
How it was run: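 Conversion was quantified by UPLC-UV/MS after acetonitrile extraction of 16-20 h, 27° C. shaken reactions. These contained 0.125 mg/ml substrate, mutant P450 with partner ferredoxin and reductase, 1 mM NADP plus 5 mM G6P and 2 U/ml G6PDH, in pH 7.4 phosphate with 5 mM MgCl2.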

[9] = Hydroxylation / de-N-ethylation of napropamide catalysed by cytochrome P450 aluC09 and mutants; conditions: for Desethyl Napropamide (1.62 min) / Desethyl-hydroxy-Napropamide (1.41 min) / Hydroxy-Napropamide (1) (1.53 min) / Hydroxy-Napropamide (2), (1.52 min) / M-2Da (unidentified) (1.89 min) / Napropamide (substrate): % by UV peak area at 275 nm, 0.125 mg/ml substrate, 27° C., 16-20 hours; for Hydroxylated Ratio 2:1: napropamide, ratio of UV peak areas
How it was run: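 Conversion of napropamide (0.125 mg/ml) to hydroxylated and de-ethylated metabolites was measured by UPLC-MS after acetonitrile extraction. Reactions ran 16-20 h at 27° C in pH 7.4 potassium phosphate (50 mM) with 5 mM MgCl2, 1 mM NADP, 5 mM G6P and 2 UN/ml G6PDH. Enzymes were lyophilised P450 aluC09 variants, ferredoxin aluF03 and ferredoxin reductase SCF15A.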

[10] = Metabolism of bosentan by P450 aluC09 and mutants; conditions: percent of substrate being converted; 0.125 mg/ml, 27° C., 16-20 hours; [CYP] per enzyme as in Table 8
How it was run: as §1

[11] = Metabolism of valsartan by P450 aluC09 and mutants; conditions: percent of substrate being converted; 0.125 mg/ml, 27° C., 16-20 hours; [CYP] per enzyme as in Table 8
How it was run: as §1

[12] = Hydroxylation of aceclofenac catalysed by cytochrome P450 aluC09 and mutants; conditions: for Aceclofenac (Substrate) (1.80 mins) / Dihydroxy-Aceclofenac (1.42 mins) / Hydroxy-Aceclofenac (1) (1.64 min) / Hydroxy-Aceclofenac (2) (1.60 min): % by UV peak area at 275 nm, 0.125 mg/ml substrate, 27° C., 16-20 hours; for Hydroxylated Ratio 2:1: aceclofenac, ratio of UV peak areas at 275 nm
How it was run: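 Conversion was assessed by UPLC-MS (UV and MS detection) after acetonitrile extraction of reactions run 16-20 h at 27° C, shaking. Reactions contained substrate at 0.125 mg/ml, P450 mutant plus ferredoxin and reductase partners, 1 mM NADP with glucose-6-phosphate regeneration, in phosphate buffer pH 7.4.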

[13] = Metabolism of 4-pyrrolidylacetophenone by P450 aluC09 and mutants; conditions: percent of substrate being converted; 0.125 mg/ml, 27° C., 16-20 hours; [CYP] per enzyme as in Table 8
How it was run: as §1

[14] = Hydroxylation of diclofenac catalysed by cytochrome P450 aluC09 and mutants (UPLC-PDA-MS); conditions: for 4′,5-dihydroxy-diclofenac 1.38 mins / 4′-hydroxy-diclofenac (1) 1.62 mins / 5-hydroxy-diclofenac (2) 1.58 mins / Diclofenac (Substrate) 1.81 mins: % by UV peak area at 275 nm, 0.125 mg/ml substrate, 27° C., 16-20 hours; for Hydroxylated Ratio hydroxy 1:hydroxy 2: diclofenac, ratio of UV peak areas at 275nm
How it was run: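 Conversion of diclofenac (0.125 mg/ml) to hydroxy metabolites measured by UPLC with UV and MS detection, identities confirmed by authentic samples. Reactions used P450 aluC09 variants with ferredoxin aluF03, reductase SCF15A and an NADP/G6P/G6PDH recycling system, pH 7.4 phosphate, 27° C, 16-20 hours.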

[15] = Metabolism of BIRB796 by P450 aluC09 and mutants; conditions: percent of substrate being converted; 0.125 mg/ml, 27° C., 16-20 hours; [CYP] per enzyme as in Table 8
How it was run: as §1

[16] = Metabolism of ruxolitinib by P450 aluC09 and mutants; conditions: percent of substrate being converted; 0.125 mg/ml, 27° C., 16-20 hours; [CYP] per enzyme as in Table 8
How it was run: as §1

B1: aluC09M38: cytochrome P450 aluC09 mutant T291H; amino acid sequence SEQ ID NO: 64 (protein, listed as Amycolatopsis lurida)
chain: MTDVEETTATLPLARKCPFSPPPEYERLRRESPVSRVGLPSGQTAWALTRLEDIREMLSSPHFSSDRQSPSFPLMVARQIRREDKPFRPSLIAMDPPEHSRARRDVVGEFTVKRMKALQPRIQQIVDEHLDALLAGPKPADLVQALSLPVPSLVICELLGVPYSDHEFFQSCSSRMLSREVTAEERMTAFEQLENYLDELVTKKEANATEDDLLGRQILKQRETGEADHGELVGLAFLLLIAGHETTANMISLGTVTLLENPDQLAKIKADPGKTLAAIEELLRVFTIAEHATSRFATADVEIGGTLIRAGEGVVGLSNAGNHDPDGFENPDTFDIERGARHHVAFGFGVHQCLGQNLARLELQIVFDTLFRRVPGLRIAVPVDELPFKHDSTIYGLHALPVTW
With B1 the “% conversions (avg) Celecoxib” value [1] was 2.3%, the “% conversions (avg) Tofacitinib” value [2] was 0.7% and the “% conversions (avg) Ritonavir” value [3] was 64.2%. The “Flufenamic Acid (Substrate) 1.93 mins” value [4] was 95.3%, the “Hydroxy-Flufenamic Acid (1) 1.69 mins” value [4] was 2.9% and the “Hydroxy-Flufenamic Acid (2) 1.65 mins” value [4] was 1.8%. For the same molecule, the “Hydroxylated Ratio 1:2” value [4] was 1.6, the “% conversions (avg) Tivantinib” value [5] was 27.6% and the “% conversions (avg) Buparvaquone” value [6] was 4.1%. For the same molecule, the “% conversions (avg) Epothilone B” value [7] was 13.4%, the “Indomethacin (1.74 mins)” value [8] was 83.8% and the “O-demethyl-Indomethacin (1.52 mins)” value [8] was 16.2%. For the same molecule, the “Desethyl Napropamide (1.62 min)” value [9] was 45.6%, the “Desethyl-hydroxy-Napropamide (1.41 min)” value [9] was 3.8% and the “Hydroxy-Napropamide (1) (1.53 min)” value [9] was 1.0%. The “Hydroxy-Napropamide (2), (1.52 min)” value [9] was 3.9%, the “M-2Da (unidentified) (1.89 min)” value [9] was 6.2% and the “Napropamide (substrate)” value [9] was 41.1%. For the same molecule, the “Hydroxylated Ratio 2:1” value [9] was 3.9, the “% conversions (avg) Bosentan” value [10] was 98.7% and the “% conversions (avg) Valsartan” value [11] was 61.9%. For the same molecule, the “Aceclofenac (Substrate) (1.80 mins)” value [12] was 29.8%, the “Dihydroxy-Aceclofenac (1.42 mins)” value [12] was 28.9% and the “Hydroxy-Aceclofenac (1) (1.64 min)” value [12] was 11.9%. The “Hydroxy-Aceclofenac (2) (1.60 min)” value [12] was 29.4%, the “Hydroxylated Ratio 2:1” value [12] was 2.5 and the “% conversions (avg) 4-pyrrolidylacetophenone” value [13] was 2.9%. For the same molecule, the “4′,5-dihydroxy-diclofenac 1.38 mins” value [14] was 2.9%, the “4′-hydroxy-diclofenac (1) 1.62 mins” value [14] was 44.5% and the “5-hydroxy-diclofenac (2) 1.58 mins” value [14] was 18.9%. For the same molecule, the “Diclofenac (Substrate) 1.81 mins” value [14] was 35.6%, the “Hydroxylated Ratio hydroxy 1:hydroxy 2” value [14] was 2.4 and the “% conversions (avg) BIRB796” value [15] was 13.6%. The “% conversions (avg) Ruxolitinib” value [16] was 30.8%.

B2: aluC09: wild-type cytochrome P450 aluC09 from Amycolatopsis lurida NRRL-2430; amino acid sequence SEQ ID NO: 2 (protein, listed as Amycolatopsis lurida)
chain: MTDVEETTATLPLARKCPFSPPPEYERLRRESPVSRVGLPSGQTAWALTRLEDIREMLSSPHFSSDRQSPSFPLMVARQIRREDKPFRPSLIAMDPPEHSRARRDVVGEFTVKRMKALQPRIQQIVDEHLDALLAGPKPADLVQALSLPVPSLVICELLGVPYSDHEFFQSCSSRMLSREVTAEERMTAFEQLENYLDELVTKKEANATEDDLLGRQILKQRETGEADHGELVGLAFLLLIAGHETTANMISLGTVTLLENPDQLAKIKADPGKTLAAIEELLRVFTIAETATSRFATADVEIGGTLIRAGEGVVGLSNAGNHDPDGFENPDTFDIERGARHHVAFGFGVHQCLGQNLARLELQIVFDTLFRRVPGLRIAVPVDELPFKHDSTIYGLHALPVTW
In the case of B2, the “% conversions (avg) Celecoxib” value [1] is reported as 2.5%, the “% conversions (avg) Tofacitinib” value [2] is reported as 1.4% and the “% conversions (avg) Ritonavir” value [3] is reported as 59.6%. The “Flufenamic Acid (Substrate) 1.93 mins” value [4] was 93.1%, the “Hydroxy-Flufenamic Acid (1) 1.69 mins” value [4] was 4.5% and the “Hydroxy-Flufenamic Acid (2) 1.65 mins” value [4] was 2.4%. For the same molecule, the “Hydroxylated Ratio 1:2” value [4] was 1.9, the “% conversions (avg) Tivantinib” value [5] was 41.4% and the “% conversions (avg) Buparvaquone” value [6] was 14%. For the same molecule, the “% conversions (avg) Epothilone B” value [7] was 18.4%, the “Indomethacin (1.74 mins)” value [8] was 83.6% and the “O-demethyl-Indomethacin (1.52 mins)” value [8] was 16.4%. For the same molecule, the “Desethyl Napropamide (1.62 min)” value [9] was 44.8%, the “Desethyl-hydroxy-Napropamide (1.41 min)” value [9] was 5.4% and the “Hydroxy-Napropamide (1) (1.53 min)” value [9] was 2.0%. The “Hydroxy-Napropamide (2), (1.52 min)” value [9] was 4.0%, the “M-2Da (unidentified) (1.89 min)” value [9] was 6.6% and the “Napropamide (substrate)” value [9] was 39.3%. The “Hydroxylated Ratio 2:1” value [9] was 2.1, the “% conversions (avg) Bosentan” value [10] was 98.8% and the “% conversions (avg) Valsartan” value [11] was 28.9%. The “Aceclofenac (Substrate) (1.80 mins)” value [12] was 18.0%, the “Dihydroxy-Aceclofenac (1.42 mins)” value [12] was 36.5% and the “Hydroxy-Aceclofenac (1) (1.64 min)” value [12] was 5.7%. For the same molecule, the “Hydroxy-Aceclofenac (2) (1.60 min)” value [12] was 39.8%, the “Hydroxylated Ratio 2:1” value [12] was 7.0 and the “% conversions (avg) 4-pyrrolidylacetophenone” value [13] was 5.6%. The “4′,5-dihydroxy-diclofenac 1.38 mins” value [14] was 3.1%, the “4′-hydroxy-diclofenac (1) 1.62 mins” value [14] was 27.0% and the “5-hydroxy-diclofenac (2) 1.58 mins” value [14] was 26.2%. The “Diclofenac (Substrate) 1.81 mins” value [14] was 45.2%, the “Hydroxylated Ratio hydroxy 1:hydroxy 2” value [14] was 1.0 and the “% conversions (avg) BIRB796” value [15] was 13.4%. The “% conversions (avg) Ruxolitinib” value [16] was 46.6%.
